Legend:
[1] = target: T1, purified human monomeric 4-1BB (UniProt Q07011 24-186); assay: SPR; 25 °C
[2] = target: T1, purified human monomeric 4-1BB; assay: SPR; 25 °C, steady state affinity

T1 sequence (Q07011 other isoform, or with tags, fused parts or gaps): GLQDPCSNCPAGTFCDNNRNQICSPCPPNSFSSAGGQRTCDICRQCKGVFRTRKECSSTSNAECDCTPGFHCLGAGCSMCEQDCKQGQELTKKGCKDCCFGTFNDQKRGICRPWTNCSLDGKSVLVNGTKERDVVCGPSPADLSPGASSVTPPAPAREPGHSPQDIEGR

Kd [1]	Kd [2]	Binder
256 nM	–	v20036 (antibody, V domains shown) VH: QVQLQESGPGLVQPTQSLSITCTVSGFSLISYGVHWVRQSPGKGLEWLGVIWSGGSTDYNAAFISRLSISKDNSKSQVFFKMNSLQADDTAIYYCARNPLTATVMDYWGQGTSVTVSS VL: DIVMTQSQKFMSTSVGDRVSVTCKASQNVGTNVAWYQQKPGQSPKALIYSASYRDSGVPDRFTGSGSGTDFTLTISNVQSEDLAEYLCQQYNSYPLTFGAGTKLELKR
–	687 nM	v28696 (antibody, V domains shown) VH: QVQLQESGPGLVKPSETLSLTCTVSGFSLISYGVHWIRQPPGKGLEWIGVIWSGGSTDYNPSLKSRVTISVDTSKNQFSLKLSSVTAADTAVYYCARNPLTATVMDYWGQGTLVTVSS VL: DIQMTQSPSSLSASVGDRVTITCRASQNVGTNVAWYQQKPGKAPKALIYSASYRDSGVPSRFSGSGSGTDFTLTISSLQPEDFATYYCQQYNSYPLTFGGGTKVEIKR
